According to patent US20120202221A1 (ACTELION PHARMACEUTICALS, published 2012):

T1: recombinant human GPR1 receptor (human, UniProt P46091 1-355)
T1 sequence: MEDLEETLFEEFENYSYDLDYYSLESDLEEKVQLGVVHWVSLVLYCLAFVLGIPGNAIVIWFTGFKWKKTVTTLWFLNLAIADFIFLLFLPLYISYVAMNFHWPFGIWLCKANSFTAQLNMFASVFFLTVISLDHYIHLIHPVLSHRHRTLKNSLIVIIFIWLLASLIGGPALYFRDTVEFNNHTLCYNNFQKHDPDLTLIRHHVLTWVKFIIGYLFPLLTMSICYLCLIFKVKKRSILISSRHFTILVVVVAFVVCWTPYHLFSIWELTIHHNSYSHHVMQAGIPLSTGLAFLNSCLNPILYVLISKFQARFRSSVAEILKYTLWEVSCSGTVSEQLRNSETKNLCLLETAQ


Each molecule was assayed against T1, recombinant human GPR1 receptor (assay: cell-based or functional assay).
d-Ser14-Humanin (peptide) showed an EC50 of beta-arrestin2 recruitment (agonistic activity), CHO-K1-hGPR1-Beta-arrestin 2 PathHunter cells of 92.8 nM. With MAPRGFSCLLLLTSEIDLPVKRRA [Humanin] the “EC50 of beta-arrestin2 recruitment (agonistic activity), CHO-K1-hGPR1-Beta-arrestin 2 PathHunter cells” value (from here on “EC50 of beta-arrestin2 recruitment”) was 60.9 nM. For MAPRGFSALLLLTSEIDLPVKRRA [Ala8-Humanin], the “EC50 of beta-arrestin2 recruitment” value was 55.6 nM. For MAPRGFSCLLLLTGEIDLPVKRRA [Gly14-Humanin], the “EC50 of beta-arrestin2 recruitment” value was 46.1 nM.
